Reference: PMC2671563 (PLoS Biology, 2009)
Each block holds one molecule with its values, some of them ahead of it.

Experiments:
[1] = target: mouse S100A9 (mouse) (UniProt P31725); assay: SPR; competition: 100 nM mouse S100A9 injected over amine-coupled mLPS-Trap with soluble mLPS-Trap (100, 200, 400 nM) as competitor
[2] = target: T1, hS100A9 (Homo sapiens, UniProt P06702); assay: SPR: analytes injected over immobilised hS100A9; type: binding
T1 construct: made in house; host or cells: Escherichia coli (or purified from granulocytes)
T1 sequence (P06702 1-114): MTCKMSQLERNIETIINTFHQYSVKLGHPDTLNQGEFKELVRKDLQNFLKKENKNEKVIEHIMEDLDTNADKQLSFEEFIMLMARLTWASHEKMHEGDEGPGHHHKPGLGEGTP
Method: (§1) The SPR analysis was carried out with the Biacore 3000 system (GE Healthcare). Sensor chips, amine coupling kit, immobilization and running buffers, and regeneration solutions were obtained from GE Healthcare. Working solutions of all reagents used for Biacore analysis were prepared in 0.01 M Hepes, 0.15 M NaCl (pH 7.4) containing 0.005% v/v Surfactant P-20 (HBS-P; GE Healthcare) by buffer exchange on Fast Protein Desalting Micro-Spin Columns from Pierce. ABR-215757 was immobilised onto a CM5 chip through an amino-linker (ABR-224649). […] Activity of ligands after immobilisation was tested by injecting specific antibodies (unpublished data). In some experiments, S100A9 was immobilized either by random amine coupling or with a known orientation (i.e., by sulhydryl group conjugation to the only cysteine in S100A9 at position 3).
(B) Left: 100 nM TLR4/MD2 or MD2 injected over amino-coupled hS100A9. […] Fab 43/8 was injected at 50–200 nM to verify activity of immobilized hS100A9 (right). […] (482 KB PDF) Click here for additional data file.

[3] = target: T2, human S100A9 binding to human TLR4/MD2 (Homo sapiens, UniProt P06702); assay: SPR: inhibition of human S100A9 binding to immobilised human TLR4/MD2; details: for inhibition of hS100A9 binding to immobilised hTLR4/MD2: 100 nM hS100A9
T2 construct: purchased R&D Systems (TLR4/MD-2 complex); S100A9 made in house
T2 sequence (P06702 1-114): T1 sequence (P06702 1-114)
Method: as §1
(§2) Binding to the various surfaces was performed by injecting the analyte at a flow rate of 30 μl/min in a physiological buffer (HBS-P) containing 1 mM Ca^2+ and 10 μM Zn^2+ as proposed for S100A8/9 by Robinson et al.. A typical analysis cycle consists of: (1) pumping running buffer for 1 min to obtain a stable baseline; (2) injection of sample for an appropriate period of time (association); (3) pumping running buffer for 2.5 min (dissociation); (4) injection of a short pulse (30 s) of 15 μl 10 mM glycine-HCl (pH 2.0) (regeneration); and (5) pumping running buffer for 2 min (stabilisation after regeneration) at a flow rate of 30 μl/min. […] In one experiment, S100A9 was injected into a buffer with a fixed Ca^2+ concentration (1 mM) and Zn^2+ in the range 0–50 μM. In a second experiment, Ca^2+ was varied from 0–2 mM at a fixed Zn^2+ concentration (10 μM). In subsequent analyses, regeneration was carried out under more mild conditions, i.e., by injecting 30 μl of HBS-P containing 3 mM EDTA (HBS-EP; GE Healthcare) for 60 s, to prolong the lifespan of the chip.
(§3) Compounds were also injected over the immobilised surfaces in the absence of S100A9 to exclude, or make possible correction for, any direct binding of compound to the surface.
(§4) Evaluation was carried out using BIAevaluation Software version 3.2 (GE Healthcare). The response at steady-state was obtained by fit of sensorgrams to standard binding models, where appropriate, or calculated as responses at late association or early dissociation phase using the Steady state affinity function in BIAevaluation. Affinity was determined from kinetic analysis (on- and off-rates) or as the apparent affinity after plotting responses versus concentration of analyte in a saturation curve. In the inhibition assay format, the competitor concentration yielding 50% inhibition (IC50) was calculated by fitting data to a one-site competition model in GraphPad Prism.

[4] = target: T3, human S100A9 (Homo sapiens, UniProt P06702); assay: SPR: human S100A9 binding to immobilised ABR-224649 (Q compound), direct binding and displacement; details: injected together with S100A9
T3 construct: made in house; host or cells: Escherichia coli (or purified from granulocytes)
T3 sequence (P06702 1-114): T1 sequence (P06702 1-114)
Method: as §1, §2, §3, §4

[5] = target: T4, human S100A9 binding to human RAGE (Homo sapiens, UniProt P06702); assay: SPR: inhibition of human S100A9 binding to immobilised human RAGE; details: injected together with S100A9
T4 construct: purchased R&D Systems (RAGE/Fc); S100A9 made in house
T4 sequence (P06702 1-114): T1 sequence (P06702 1-114)
Method: as §1, §2, §3, §4

[6] = target: T5, human TLR4/MD-2 complex (human, UniProt O00206 24-631; Q9Y6Y9 19-160); assay: SPR; 100 nM TLR4/MD2 or MD2 injected over amine-coupled hS100A9 (~5,000 RU); fit to a 1:1 model with mass transfer; details: both partners purified
T5 construct: Toll-like receptor 4, human; MD-2, human; Soluble recombinant complex; also called hTLR4/MD-2; hTLR4/MD2; source: bought: R&D Systems (carrier-free recombinant)
T5 sequence (O00206 24-631, chain 1 of 2): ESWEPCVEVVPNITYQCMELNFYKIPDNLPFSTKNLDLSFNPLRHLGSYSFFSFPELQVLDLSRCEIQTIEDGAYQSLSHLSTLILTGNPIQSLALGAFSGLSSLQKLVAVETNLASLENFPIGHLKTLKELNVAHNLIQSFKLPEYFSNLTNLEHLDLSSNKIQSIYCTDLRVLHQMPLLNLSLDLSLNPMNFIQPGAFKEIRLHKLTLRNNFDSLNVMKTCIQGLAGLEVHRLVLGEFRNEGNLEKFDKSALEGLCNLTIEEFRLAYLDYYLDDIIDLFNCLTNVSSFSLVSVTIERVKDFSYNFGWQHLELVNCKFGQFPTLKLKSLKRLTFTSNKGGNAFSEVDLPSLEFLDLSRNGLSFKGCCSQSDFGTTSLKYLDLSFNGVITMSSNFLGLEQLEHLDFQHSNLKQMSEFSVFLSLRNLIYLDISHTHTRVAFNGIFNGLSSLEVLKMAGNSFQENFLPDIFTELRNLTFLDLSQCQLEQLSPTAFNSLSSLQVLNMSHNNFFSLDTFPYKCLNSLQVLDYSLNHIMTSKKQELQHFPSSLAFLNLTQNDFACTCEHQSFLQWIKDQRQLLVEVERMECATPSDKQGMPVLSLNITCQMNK
T5 sequence (Q9Y6Y9 19-160, chain 2 of 2): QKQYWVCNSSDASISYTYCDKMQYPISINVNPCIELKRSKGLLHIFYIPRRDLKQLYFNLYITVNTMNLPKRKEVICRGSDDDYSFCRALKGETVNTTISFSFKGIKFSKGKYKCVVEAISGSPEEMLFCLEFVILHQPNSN

[7] = target: T5, human TLR4/MD-2 complex; assay: SPR; S100 proteins injected (100 nM, or a range of concentrations; 30 ul/min) over human TLR4/MD2 immobilised by amine coupling (~3,000 RU); HBS-P pH 7.4 with 1 mM Ca2+ and 10 uM Zn2+; fit to a 1:1 model with mass transfer; half-maximal binding from responses at late association (apparent); details: both partners purified
[8] = target: T6, recombinant human RAGE/Fc (human, UniProt Q15109 23-342); assay: SPR; S100 proteins injected (100 nM, or a range of concentrations; 30 ul/min) over human RAGE/Fc immobilised by amine coupling (~3,000 RU); HBS-P pH 7.4 with 1 mM Ca2+ and 10 uM Zn2+; fit to a 1:1 model with mass transfer; half-maximal binding from responses at late association (apparent); details: both partners purified
T6 construct: RAGE (receptor for advanced glycation end products), human; human IgG1 Fc was used as the control for the Fc part; also called hRAGE; rhRAGE/Fc; source: bought: R&D Systems (carrier-free recombinant)
T6 sequence (Q15109 23-342): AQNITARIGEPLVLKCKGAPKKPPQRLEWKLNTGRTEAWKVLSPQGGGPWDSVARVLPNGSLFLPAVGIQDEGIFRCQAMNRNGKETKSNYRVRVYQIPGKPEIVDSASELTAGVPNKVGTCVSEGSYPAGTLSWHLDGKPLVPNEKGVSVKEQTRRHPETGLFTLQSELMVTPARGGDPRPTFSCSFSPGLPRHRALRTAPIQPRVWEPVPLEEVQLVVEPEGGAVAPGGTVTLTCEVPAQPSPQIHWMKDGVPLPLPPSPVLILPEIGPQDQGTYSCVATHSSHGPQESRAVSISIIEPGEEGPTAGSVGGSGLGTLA

[9] = target: T7, mouse RAGE/Fc (mouse, UniProt Q62151-1 23-340); assay: SPR; 50 and 100 nM mouse S100A9, or 100 nM mouse S100A8/A9, injected (3 min at 30 ul/min) over mouse RAGE/Fc or mLPS-Trap coupled to the sensor chip; details: both partners purified
T7 construct: RAGE, mouse; also called mRAGE; mRAGE/hFc; source: bought: R&D Systems (carrier-free recombinant)
T7 sequence (Q62151 23-340): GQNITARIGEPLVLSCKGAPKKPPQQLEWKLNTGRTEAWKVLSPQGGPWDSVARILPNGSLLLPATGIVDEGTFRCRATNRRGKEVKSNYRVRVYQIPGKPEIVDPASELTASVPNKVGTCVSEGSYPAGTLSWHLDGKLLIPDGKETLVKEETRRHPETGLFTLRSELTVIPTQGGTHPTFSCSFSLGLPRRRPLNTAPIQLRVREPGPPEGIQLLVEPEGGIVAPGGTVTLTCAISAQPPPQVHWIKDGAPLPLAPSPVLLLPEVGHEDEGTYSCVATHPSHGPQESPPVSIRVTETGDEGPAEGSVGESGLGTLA

percent inhibition of mS100A9 binding to immobilised mLPS-Trap at 100 nM competitor [1]: 22%
percent inhibition of mS100A9 binding to immobilised mLPS-Trap at 200 nM competitor [1]: 51%
percent inhibition of mS100A9 binding to immobilised mLPS-Trap at 400 nM competitor [1]: 70%
Molecule: mouse TLR4/MD2 fusion protein (mLPS-Trap)

inhibition of S100A9 interaction with immobilised Q compound by competitor in solution [4]: inhibit
Kd ([2]; 100 nM analyte, 1:1 model with mass transfer, read-out: KD, binding to immobilised hS100A9): 9.2 nM
inhibition of hS100A9 binding to immobilised hTLR4/MD2 ([3]; competitor 200 nM): 55%
inhibition of hS100A9 binding to immobilised hTLR4/MD2 ([3]; competitor 400 nM): 78%
blocking of S100A9 interaction with immobilised TLR4 by competitor in solution ([3]; injected together with S100A9): efficiently block
inhibition of S100A9 interaction with immobilised RAGE by competitor in solution [5]: inhibit
Molecule: sTLR4/MD2: recombinant human TLR4/MD-2 complex in solution

Kd [6]: 9.2 nM
Kd [7]: 2.1 nM
Kd [8]: 38 nM
B1: human S100A9 (natural protein, UniProt P06702 1-114, looked up)
chain: T1 sequence (P06702 1-114)
notes: S100A9, human; called homodimeric; also called hS100A9; homodimeric S100A9; source: either produced recombinantly in Escherichia coli or purified from granulocytes

binding result [9]: binds
B4: mouse S100A8/A9 heterodimer (complex)
chain 1: MPSELEKALSNLIDVYHNYSNIQGNHHALYKNDFKKMVTTECPQFVQNINIENLFRELDINSDNAINFEEFLAMVIKVGVASHKDSHKE
chain 2: MANKAPSQMERSITTIIDTFHQYSRKEGHPDTLSKKEFRQMVEAQLATFMKKEKRNEALINDIMEDLDTNQDNQLSFEECMMLMAKLIFACHEKLHENNPRGHGHSHGKGCGK
notes: S100A8, mouse; S100A9, mouse; also called mS100A8/A9; murine S100A8/A9; source: either produced recombinantly in Escherichia coli or purified from granulocytes

Second part, the molecule before the results:

Molecule: rhMD-2: recombinant human MD-2
binding to immobilised S100A9 [2]: did not
displacement of S100A9 binding to immobilised hTLR4/MD2 ([3]; 200 and 400 nM, unpublished data): No displacement

B2: human S100A8/A9 heterodimer (complex)
chain 1: MLTELEKALNSIIDVYHKYSLIKGNFHAVYRDDLKKLLETECPQYIRKKGADVWFKELDINTDGAVNFQEFLILVIKMGVAAHKKSHEESHKE
chain 2: T1 sequence (P06702 1-114)
notes: S100A8, human; S100A9, human; also called hS100A8/9; S100A8/A9 complex; source: either produced recombinantly in Escherichia coli or purified from granulocytes
Kd [7]: 3.8 nM
Kd [8]: 9.4 nM

B3: mouse S100A9 (natural protein, UniProt P31725 1-113, looked up)
chain: B4 chain 2
notes: S100A9, mouse; called homodimeric; also called mS100A9; murine S100A9; source: either produced recombinantly in Escherichia coli or purified from granulocytes
binding result [9]: binds
